Results reported in paper doi:10.1101/2025.08.18.670960.

Target: UNC-119 tagged with the C-terminal fragment of Venus (C. elegans) (UniProt Q10658)
Assay: split reporter (BiFC, NanoBiT); BiFC in AWC neurons of wild-type animals: VC::UNC-119 with ODR-3::VN variants; read-out is percent of transgenic animals with signal; free VN as negative control

Chain of UniProt Q10658 (Q10658 whole entry, the tested form may be a part): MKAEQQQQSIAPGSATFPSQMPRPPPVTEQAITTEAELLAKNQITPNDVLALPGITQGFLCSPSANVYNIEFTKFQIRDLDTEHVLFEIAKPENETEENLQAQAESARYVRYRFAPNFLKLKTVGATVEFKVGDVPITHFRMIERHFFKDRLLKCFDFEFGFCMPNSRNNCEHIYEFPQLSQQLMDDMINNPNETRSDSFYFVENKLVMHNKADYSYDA

| percent of transgenic animals with BiFC signal | Substance |
| --- | --- |
| 81% | ODR-3^WT tagged with the N-terminal Venus fragment (from UniProt Q18434 1-356) (natural protein) |
| 51% | ODR-3^A328P tagged with the N-terminal Venus fragment (from UniProt Q18434 1-356) (natural protein) |
